Results published in paper PMC3787020.
Each block holds one substance with its values, some of them ahead of it.

Legend:
[1] = biological target: C33S mutant human TGF-β1 (pro-TGF-β1 and latent TGF-β1), expressed in 293 cells (human); experiment: non-reducing SDS-PAGE and western blot of immunoprecipitates; anti-GARP IP products of cell lysates; SDS-PAGE under non-reducing conditions; WB with anti-LAP antibodies
[2] = biological target: C33S mutant human TGF-β1 (pro-TGF-β1 and latent TGF-β1), expressed in murine BW5147 T cells (human); experiment: as above
[3] = biological target: TGF-β1 (pro-TGF-β1 and latent TGF-β1), endogenous in human T cells (human (endogenous in human T cells)); experiment: non-reducing SDS-PAGE and western blot of culture supernatants; cells incubated in serum-free medium for 24 or 48 hours; supernatants analysed by WB under non-reducing conditions with anti-GARP and anti-LAP antibodies
[4] = biological target: wild type human TGF-β1 (pro-TGF-β1 and latent TGF-β1), expressed in 293 cells (human); experiment: as above

- stoichiometry N [1]: 2
Substance: C33S mutant human TGF-β1 (pro-TGF-β1 and latent TGF-β1), expressed in 293 cells (ligand)

- stoichiometry N [2]: 2
Substance: C33S mutant human TGF-β1 (pro-TGF-β1 and latent TGF-β1), expressed in murine BW5147 T cells (ligand)

- stoichiometry N [3]: 2
Substance: TGF-β1 (pro-TGF-β1 and latent TGF-β1), endogenous in human T cells (ligand)

- stoichiometry N [4]: 2
Substance: wild type human TGF-β1 (pro-TGF-β1 and latent TGF-β1), expressed in 293 cells (ligand)
